According to the DeepSol protein solubility set:

Test: soluble on expression in E. coli; label from the status in PepcDB or PDB records

| Sequence | soluble on expression in E. coli |
| --- | --- |
| MTLEKFVDALPIPDTLKPVQQSKEKTYYEVTMEECTHQLHRDLPPTRLWGYNGLFPGPTIEVKRNENVYVKWMNNLPSTHFLPIDHTIHHSDSQHEEPEVKTVVHLHGGVTPDDSDGYPEAWFSKDFEQTGPYFKREVYHYPNQQRGAILWYHDHAMALTRLNVYAGLVGAYIIHDPKEKRLKLPSDEYDVPLLITDRTINEDGSLFYPSAPENPSPSLPNPSIVPAFCGETILVNGKVWPYLEVEPRKYRFRVINASNTRTYNLSLDNGGDFIQIGSDGGLLPRSVKLNSFSLAPAERYDIIIDFTAYEGESIILANSAGCGGDVNPETDANIMQFRVTKPLAQKDESRKPKYLASYPSVQHERIQNIRTLKLAGTQDEYGRPVLLLNNKRWHDPVTETPKVGTTEIWSIINPTRGTHPIHLHLVSFRVLDRRPFDIARYQESGELSYTGPAVPPPPSEKGWKDTIQAHAGEVLRIAATFGPYSGRYVWHCHILEHEDYDMMRPMDITDPHK | soluble |
| MTLHKPTQAVPCRAPKVGRLIYTAGGYFRQSLSYLEAYNPSNGSWLRLADLQVPRSGLAGCVVGGLLYAVGGRNNSPDGNTDSSALDCYNPMTNQWSPCASMSVPRNRIGVGVIDGHIYAVGGSHGCIHHSSVERYEPERDEWHLVAPMLTRRIGVGVAVLNRLLYAVGGFDGTNRLNSAECYYPERNEWRMITPMNTIRSGAGVCVLHNCIYAAGGYDGQDQLNSVERYDVETETWTFVAPMRHHRSALGITVHQGKIYVLGGYDGHTFLDSVECYDPDSDTWSEVTRMTSGRSGVGVAVTMEPCRKQIDQQNCTCY | soluble |
| MTLTDISLAQAFISIPQDVIALDLSNNLLGSKSCVDLLVNIADCIPAGVTSLDLSSNGLRLTQVSLVTPKHVTSLNLCFNPLHEISIDGLEWLKDSLAHIQIIYLSYDMVNNMSREQRQAFRAVIPNIQTIILVDKNGKEIGPSHTAKIANLISELGGGNPEVPSLEHHHHHH | not soluble |
| MTLVIGLTGGIASGKSTVANMLIEKGITVIDADIIAKQAVEKGMPAYRQIIDEFGEDILLSNGDIDRKKLGALVFTNEQKRLALNAIVHPAVRQEMLNRRDEAVANREAFVVLDIPLLFESKLESLVDKIIVVSVTKELQLERLMKRNQLTEEEAVSRIRSQMPLEEKTARADQVIDNSGTLEETKRQLDEIMNSWALEHHHHHH | soluble |
| MTMNIAVVSGRIAPELTLPGLNFSRAYAPSTDFRSARLGLLTGQYPQRQPVTRFASLIGTVAEDFSPADVHIIERAEITPDLLDQAHDSGAATFFVGHPTIDDHRVRMSLLWPGVTDTNLPHDTIDGVVTCNELVSTLDIAPTLAAIAGYDVRPNAQLSFDGMNLTPVIRYGATGHGGLFFDDGTVITPTEVRRQANDPEWTMWHQFMNMGPLQ | not soluble |
| MTMTLVNKNRKSRDENAMAKYNEKELADTSKFLSFVLRHKPEAIGIVLDREGWADINKLILCAQKAGKRLTRALLDTVVATSDKKRFSYSSDGRCIRAVQGHSTSQVAISFAEKTPPQFLYHGTASRFLDEIKKQGLIAGDRHYVHLSADEATARKVGARHGSPVVLTVKAQEMAKRGIPFWQAENGVWLTSTVAVEFLEWSFMPTGVQKQLEHHHHHH | soluble |
| MTMTTMPESLNSPVSGKAVFMEFGPPNQQMSPSPMSHGHYSMHCLHSAGHSQPDGAYSSASSFSRPLGYPYVNSVSSHASSPYISSVQSYPGSASLAQSRLEDPGQDLVPKQAIQVQEADEAGWGGSGG | soluble |
| MTNEEPKSPEKVERRRSTQEDSEKDKKRSRDDRKTEKRTHDRDRKRNRSRSRSRSRSPKRSRRDKKEEKQEQEEEDGEIRDTTPPAPEKPRQLTARELERQRIIEEELKSGKHDEHDDDPVWSMKKAQAEKKSRMCPYLDTIDRSVLDFDFEKQCSVSLSHQNVYACMVCGKYFQGRGTNTHAYTHALETDHHVFLNLQTLKFYCLPDNYEVIDPSLEDIKYVLKPTYTKEMIASIDKQSKMVRAYDDSTYFPGVVGLNNIKANDYCNAILQALSAVRPLRNWFLKESNYTSIKRPPGDKLTLLPQRFGELIRKLWNPRALRTHVSPHEMLQAVVVCSNKKFQFIKQNDAADFMLFLLTTLHSALNGTDKKPSIISKTFRGRMRQYSRRVIPAEDTDEEKYMKLRMPEYQEKVIESPFLYLTLDLPSAPLYRDVQLQNIIPQVPLSTLLEKFDGKTEKEYPTYNDNNIMKRFELLQLPDFLIITYKRFQKNQWFVEKNPTIVNFPIANVDFYDCLAKDARANHKYTTYDLVANVVHEGTFKDGNYRIQIVHEGSGKWFELEDLHVKDLLPQMIVLAESYIQIWRLNKEQTRDERAEGEPMQN | not soluble |
| MTNKEKPIKHLVIDTCAIIANRNLHALADHYYAPPQILDELRSSAARKLWNTLPFEVTLREPTQTALRAVIDASKTTGDFQSLSMVDIKMIALTYDLHRQYVAENDVAETTEDDEKKNIEDLSAKVEQVTVGENTEDTKEEEIEENEESEDSAVSEGSESSESSESFDEDGWITQDNIEETLKKLGAFEIEENMLVGCLTTDFALQNVLLAMNLSLVSLSGYRIRKLKSFVLRCRTCFSTTSVMTKEFCPACGHKTLHKCAVSVDEDGNQQLHINWNRMANRRGLVYTLANPKGGKHATNERLFEDQPMPHMRMAKIHMDPLADGPFSVHDVTSRSAMLGVRTINNRAKQNRNPNESKRGGRRK | not soluble |
| MTNLETYFKNSQPLNEYIDGMKTNQDTVLSIYQSFELPEDDSRIKKIKEMNYSKVLVITEDWCGDAMMNLPILKHISEALNLEVRVFHRDDDTKLIDQYLTNGKSRAIPIFVFLNDQFEQETVWGPRANEVQKFVTDVRADKLPSKDHPDYADLEKETHLVISNRYKTDASFWKAVYNSILNKLENK | not soluble |
| MTNPTKPIPLNFDKPRRFMPPKHFADLSADERIDALKELGLPKFRANQIARHYYGRLEADPSTMTDLPAAAREKVKDALFPQLMQPVRAVQADDGETQKTLWKLHDGTLLESVLMRYPNRATLCISSQAGCGMACPFCATGQGGLDRNLSTGEIVDQVRAASATMQAEGGRLSNIVFMGMGEPLANYKRVVSAVRQITAPVPEGFGISQRNVTVSTVGLAPAIRKLADEDLSVTLAVSLHTPDDELRNTLVPTNNRWEVAEVLDAARYYADRSGRRVSIEYALIRDVNDQGWRADMLGKKLHKALGPLVHVNLIPLNPTPGSKWDASPMDRQKEFVQRVIAQGVTCTVRDTRGQEIAAACGQLAAEER | not soluble |
| MTNQQDYTQDNDKLYRYLFQHRAVRGEWVRLNKTFTDTLNTHQYPKAVQDLLGEMMVATNLLTATLKFAGNITVQIQGDGPLRLALVNGNDQQQIRALARVDGNITENMSLHNMIGKGVLVITIAPKEGERYQGVISLDKPTITECLEDYFVRSEQLQTQLIIRTGEYEGKPVAAGMLLQIMPDGSGTPEDFEHLTTLAATVKDEELFGLPAEELLYRLYHEETVNLYPAQDVQFFCGCSAERSSSALLLISDEEIDEILAEHKGRIDMQCECCGTHYFFNKEAIEKLKSTRV | not soluble |
| MTNVLILGAAGQIARLAEQQFLANTTDNLTLYLRNSSRVADQQSDRVTIIDGDTTDEAKLTQAMTGQDVVYANLAGQNIKQQAETVLKAMHTSGLKRLIWISTLGIYDEVPGKFGQWNNATLGSYLTRYYAAAEVLENSDLDYTIIRPAWLTNKDEIDYEITQRHDPFKGTEVSRKSIAALVVKLTQDPTSNIRTSLGVNKPNTDGDKPAWY | not soluble |
| MTPFMTEDFLLDTEFARRLYHDYAKDQPIFDYHCHLPPQQIAEDYRFKNLYDIWLKGDHYKWRAMRTNGVAERLCTGDASDREKFDAWAATVPHTIGNPLYHWTHLELRRPFGITGKLLSPSTADEIWNECNELLAQDNFSARGIMQQMNVKMVGTTDDPIDSLEHHAEIAKDGSFTIKVLPSWRPDKAFNIEQATFNDYMAKLGEVSDTDIRRFADLQTALTKRLDHFAAHGCKVSDHALDVVMFAEANEAELDSILARRLAGETLSEHEVAQFKTAVLVFLGAEYARRGWVQQYHIGALRNNNLRQFKLLGPDVGFDSINDRPMAEELSKLLSKQNEENLLPKTILYCLNPRDNEVLGTMIGNFQGEGMPGKMQFGSGWWFNDQKDGMERQMTQLAQLGLLSRFVGMLTDSRSFLSYTRHEYFRRILCQMIGRWVEAGEAPADINLLGEMVKNICFNNARDYFAIELN | soluble |
| MTPHPRLSIGLPVYNGEEYLAESLDALLGQTYENFELVISDNASTDGTRDICRRYAAQDSRIRYIRLPRNIGAAPNHNYVFTECRGELFKWASHDDLYARDLLRSCVAALDERPEVVLAHAGQAVIDGDGKVKVPYEYGLATDSPRAPERFRSLLFEPGGDDFYGVMRSAMLRRVKPHDSYHHADRTFVAEITLHGPFHQVPELLYFRRDHPTRAERANPSKRSRCVNLDPRRAGPLHPTPRLLAEYVWGFASAIGRAPLSSADRRACHRHLAAWLTSRVRPGVGERVEDRAPVDPDRLTVSVDDLVAGREGRQALEHHHHHH | not soluble |
| MTPLSSPLSQYWQTVVERLPEGFTETSLSAQAKSVLTFSDFALDSVIAHPEWLAELESASPQADEWRHYAGWLQEALAGVCDDASLMRELRLFRRRIMVRIAWAQTLSLVDDETILQQLSHLAETLIVGARDWLYAACCREWGTPCNPQGVPQPLLILGMGKLGGGELNFSSDIDLIFAWPEHGETRGGRRELDNAQFFTRLGQRLIKALDQPTMDGFVYRVDMRLRPFGDSGPLVLSFAALEDYYQEQGRDWERYAMVKARLMGDNDDAWSRELRAMLRPFVFRRYIDFSVIQSLRNMKGMIAREVRRRGLKDNIKLGAGGIREIEFIVQVFQLIRGGREPSLQSRSLLPTLDAIAALHLLPENDVAQLRVAYLFLRRLENLLQSINDEQTQTLPADDLNRARLAWGMKAENWPQLVGELTDHMANVRRVFNELIGDDEADTPQEEERSEPWREVWQDALQEDDSTPVLAHLADEDRRQVLTLIADFRKELDKRPIGPRGRQVLDQLMPHLLADVCSREDAAVTLSRITPLLAGIVTRTTYLELLSEFPGALKHLIMLCAASPMIASQLARYPLLLDELLDPGTLYQPTATDAYRDELRQYLLRVPEEDEEQQLEALRQFKQAQLLRIAAADIAGTLPVMKVSDHLTWLAEAMIDAVVQQAWTQMVARYGQPAHLDERQGRGFAVVGYGKLGGWELGYSSDLDLIFLHDCPMDVMTNGEREIDGRQFYLRLAQRIMHLFSTRTSSGILYEVDARLRPSGAAGMLVTSADAFADYQQHEAWTWEHQALVRARVVYGDPQLTSQFDAVRRTIMTTARDGKTLQTEVREMREKMRAHLGNKHRDRFDIKADEGGITDIEFIAQYLVLRYAHEKPKLTRWSDNVRILELLAQNGIMDEHEAQALTVAYTTLRDELHHLALQELPGHVAQTCFSKERALVQASWRKWLVAV | soluble |
| MTQDPHQTADILIIGGGLSGSMLAAQLLRRPGQRRILIIETRSELGRGEAYSATEPGHTLNGNAARMSVDPDNAHDLTEWLTGYLAEGGWPEAAEQKIPVAELFPPRGVFGLYVQQRLREAQVVGEGFGSTVGHVRAEAVDVQVSEQGVSVTLADGRELRGSQAVLATGMYAASRTPQRESNALNAASLDPWDVSVMQQLDPQTRVLIIGSGLTMVDALVSLEKAGHRGPIQVFSRHGLLPHVRRQPPEWSDFLAQDPSIRSTRQLVRKVREQCELAIESGIDWQAPLDTVRANVGRLWNQATDTQRRQFVRHVRPWWESHHHRSPPPSAALLARLVKQGRLSIEAASLQGVASLPSGQVQISVRRRGEHEPTHILGDALINSTGIEYDWRRVDRPLPRQLLARGLIQPGPLALGIAAAHDGAVLDAQGQRSAHLFAMGPPLRGMWWESTAVTDVAIQAKALAMRLALEHHHHHH | soluble |
| MTQIGLYPSALTKPFELSLSAIKSVLEPENPSYSKRVPNCQKCGQHGRKSRLKGHKRSCPFRECPCAKVCVFSNKRSSRVSLE | not soluble |
